Assay results published in article PMC3931707, “Distinct Structural Features of the Peroxide Response Regulator from Group A Streptococcus Drive DNA Binding”.

T1: PerR WT (Streptococcus pyogenes (GAS) serotype …, UniProt Q9A1M6 1-155)
T1 sequence: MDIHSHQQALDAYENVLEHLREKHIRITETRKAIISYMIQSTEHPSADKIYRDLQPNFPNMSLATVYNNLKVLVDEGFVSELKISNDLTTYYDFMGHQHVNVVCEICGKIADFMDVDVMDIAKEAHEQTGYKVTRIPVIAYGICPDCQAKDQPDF

B1: dpr segment (-185 to -135) (dsDNA)
DNA 1: ACACTTAATTAGAATCATTATCGTTTTATATCTATATTCTACAATGATTAA
DNA 2: TTAATCATTGTAGAATATAGATATAAAACGATAATGATTCTAATTAAGTGT

Assays:
[1] = target: peroxide response regulator (PerR) from Group A streptococcus, recombinant 6xHis-tagged, wild type (Streptococcus pyogenes (Group A streptococcus) serotype M1 strain A20); experiment: SEC; Superdex 75 size exclusion chromatography of purified PerR against molecular weight markers; apparent molecular weight about 42 kDa for the wild type
PerR WT = target: T1, PerR WT; experiment: EMSA; EMSA: 20 mM Tris pH 8.0, 50 mM KCl, 5% glycerol, 50 ug/ml BSA, 15 min at 25 C; 6% native PAGE in Tris-borate, ethidium bromide; details: protein: recombinant; tags: C-terminal 6xHis (pET-21b NdeI/XhoI); chain copies: 2

| Molecule | stoichiometry N [1] | binding result (PerR WT) |
| --- | --- | --- |
| peroxide response regulator (PerR) from Group A streptococcus, recombinant 6xHis-tagged, wild type (natural protein) | 2 |  |
| B1 |  | binds |
